Measured values from the nanobody polyreactivity screen of Harvey et al. (2022).

Assay: yeast display, Sf9 membrane polyspecificity reagent, FACS + sequencing; frameworks hold sequencing errors
In short: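 Galactose-induced (36–48 hours) yeast carrying a synthetic nanobody display library were exposed to 10% biotinylated, detergent-solubilized Sf9 membrane reagent at 4 °C for 1 hour. FACS followed streptavidin microbead enrichment, using low and high (top ~1%) gates for expression (anti-HA) and reagent binding (streptavidin). Colony PCR, MiSeq 2 × 250 sequencing and CDR-length filtering followed. Labels for polyreactivity reflect the gate of origin.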

Sequence: QVQLVESGGCLVQAGGSLRLSCAASGSTFGLYAKGLYRQAPGTEREFVAAITSTGGSTYFADSVKGRFTISRDNAQNTVYLQLNSLKPEDTAVYDSYADFFVWRYPHYLIFGYWGQGTQVTVSS
- polyreactivity (PSR sort gate): low polyreactivity

Sequence: QVQLVESGGGLVQAGGSLRLSCAACGSIFPRNAMGWYIQAPGKDRALVASLNSGGSTNYADSVKGRFTISRDNAKYTVYLHMNSLKPEDSAGYYCAAVRPWWRNKPQWPRYDYWGQGTQVTVSS
- polyreactivity (PSR sort gate): low polyreactivity

Sequence: QVQLVESGGGLVHAGGSLRLSCAPSRIFVYNAMGWYRQAPGKERELVATITSSGGITYYADSVKGRFTISRDNAKNTVYLQMNSLKPEDTAVYYCNKVRRYYYRTHNDFWGQGTQVTVSS
- polyreactivity (PSR sort gate): high polyreactivity

Sequence: QVQLVESGGGLVQAGGSLRLSCAASGSNIYHNTMGWYRQAPGKERELITYYADSVKGRFTISRDNAKNTVYLQMNSLKPEDTAVYYCAASPVSRTGPGDYDYWGQGTQVTVSS
- polyreactivity (PSR sort gate): low polyreactivity

Sequence: QVQLVESGGCLVQAGGSLRLSSAASGITFYLYAMGWYRKAPGKVRELVATISRSGGSTYADSVKGRFTISRDNAKNTVYLQMHSMKPEDTAVYYCNADLLSTGFIAYDYWGQGTQVTVSS
- polyreactivity (PSR sort gate): low polyreactivity

Sequence: QVQLVESGGGLVQAGGSLRLSCAASGTFFIYAMGWYRPAPGKERELVDTISTGGSTNYADSVKGRFTISRDNAKNTVYLQMNSLKPEDTAVYSCAAEWLYPHDGGYPRPMDYWGQGTQVTVSS
- polyreactivity (PSR sort gate): low polyreactivity

Sequence: QVQLQESGGGLVQAGGSLRLSCAATGRTFRYNTMGWYRKATGKERELVARITWSGGSTYYADSVKGRFTISRDNAKNTVYLQMNSLKPEDTAVYYCAAVPILVYRWFQSYTGDYDYWGQGTQVTVSS
- polyreactivity (PSR sort gate): low polyreactivity

Sequence: QVQLVETGGGLVQAGGSLRLSCAASGSTLAPYVMGWYRQAPGKERELVAVISTRTGRTYYADSVKGRFTISRDNAKNTVYLQMNSLKPEDTAVYYCAAPVYPYQVQTYDYWGQGTQVTVSS
- polyreactivity (PSR sort gate): high polyreactivity

Sequence: QVQLVESGGGLFQAGGSLRLSCAASGSIFWSYAMGWYRQAPGKERELVAAISSGGSTNYADSVKGRFTISRDNAKNTVYLQMNSLQPEDTAVYYCNALGAKGYVKGFDYWGQGTQVTVSS
- polyreactivity (PSR sort gate): low polyreactivity

Sequence: QVQLVESVGGLVQEGGSLRLSCAASGSIRYAMGRYRQAPGKERELDAAISGRGGNTYYADSVKGSFTISRDNAKNTVYLQMNSLKPEDTAVYYCATRGNRVLTGTRYDYWGQGTQITVSS
- polyreactivity (PSR sort gate): high polyreactivity

Sequence: QVQLVESGGGLVQAGGSLRLSCAASGSILPRYVMGSYRQAPAKETELVAAISQSGGSTYYADTVKARFTISRDNAKNTVYLQMNRLKPEDTAVYYCAAEVRGWRVDYYYWGQGTQVTVSS
- polyreactivity (PSR sort gate): high polyreactivity

Sequence: QVQLQESGGGLVQADGSLRLSCAASGSMFGYYYMGWYRQAPGKDRELVATIHICGITNYADSVKGRFTISRDNAKNTVYLQMNSLKPDDTAVYYCAADEYAQRDLGYWGQGTQVTVSS
- polyreactivity (PSR sort gate): low polyreactivity

Sequence: QVQLVESGGGLVQAGGSLRLSCAASGRIFLWYTMGWYRQAPGKERELVASITRGGTTNYADSVKGRFTISRDNAKNTVYLQMNSLKPEDTAVYYFNVAYTWCQSTTSWYDIHYYWGQGSQVTVSS
- polyreactivity (PSR sort gate): high polyreactivity

Sequence: QVQLVESGGGLVQAGGSLRLSCAASGFIFSQNAMGWYRQAPGKERELVAAITSGGGTNYADSVKGRFTISRDNAKNTVYLQMNSLKPEDTAVYYCAADDEKRYSYQTYFERDYWGQGTQVTVSS
- polyreactivity (PSR sort gate): low polyreactivity

Sequence: QVQLVESGGGLVQAGGSLRLSCAASGFIFYRNTMGWYRPAPGKEREFVAAIRWRGGSTYYADSVKGRFTISRDNAKNTVYVQMNSLKPEDTAGYYCAADTRPGYSGFEYWGQGTQVTVSS
- polyreactivity (PSR sort gate): high polyreactivity

Sequence: QVQLVESGGGIVQAGGSLRLSCAASGRIFYYNAMGWYRQAPGKERELVAAISTRGTSTYYAESVKGRFTISRDNAKNTVYLQMNSLKPEDTAVYYCNRASGNWQSYLSYDYWGQGTQVTVSS
- polyreactivity (PSR sort gate): low polyreactivity

Sequence: QVQLVESGGGLVQAGGSLRLSCAASGLTFYDYAKGWYRQAPGKELELVADIDFNGGSTSYADSVKGRFTISRDNAKNTVYLQMNSLKPEDTAVYYCAVDFIYWFHSRSSYIYDYWGQGSQVTVSS
- polyreactivity (PSR sort gate): low polyreactivity

Sequence: QVQLVESWGGLVQAGGSLRLSCAASGSTFVINAMGWYSQAPGKERELVAAITWGGGRTYYADSVKGRFTISRDNAKNTVYLQMNSLKPEDTAVYYCAAVGSGWKGDYWGQGTQVTVSS
- polyreactivity (PSR sort gate): low polyreactivity

Sequence: QVQLVESGGGLVQAGGSLRLSCAASGSIFARFAMGWYRQAPGKERELVAAISGRGGSTYYADSVKGRFTISRDNAKNTVYLQMNSLKPEDTAVYYCNAVGHTSIRRALDILDYWGQVTQVTVSS
- polyreactivity (PSR sort gate): high polyreactivity

Sequence: QVQLVESGGGLVQAGGSRLSCAASGLIFISYTMGWYRQAPGKERELVAAIDSSGGNTYYADSVKGRFTISRDNAKNTVYLQMNSLKPDDTAVYYCNAAWPYKSVEYCGQGTQVTVSS
- polyreactivity (PSR sort gate): low polyreactivity

Sequence: QVQLEESGGGLVQAGGSLRLSCAASGSTFRDYAMGWYRQAPGKQRELVAAITSGGSTNYADSVKGRFTISRDNAKNTVYLQMNSLKPEDTAVYYCNARYAGWYTPWGRQSVYSDDYWGQGTQVTVSS
- polyreactivity (PSR sort gate): low polyreactivity

Sequence: QVQLVESGGGLVQAGGSLRLSCAASGLIIDGYAMGWSRQAPGKERELVATITVSGTSTYYADSVKGRFTISRDNAKNTVYLQMNSLKPEDTAVYYFATDRNYGYYFVEYDHDYWGQGTQVTVSS
- polyreactivity (PSR sort gate): low polyreactivity

Sequence: QVQLVESGGGLVQAGGSLRLSCAASGIIFVRNARGWSRQAPGKERELVAAITGRGVSTYYADSVKGRFTISRDNAKNTVYLQMNSLNQEDTAVYYGAARYSSRGTYPRRYDYWGQGTQVTVSS
- polyreactivity (PSR sort gate): high polyreactivity

Sequence: QVQLVESGGGLVQAGGSLRLSCAASGSTFKTYAMGWYRQAPGKEREFVAAINWRGTSTYYADSVKGRFTISRDNAKNTVYLQMNSLKPEDTAVYYCAAQRYGYGYQWYDHWGQGTQVTVSS
- polyreactivity (PSR sort gate): high polyreactivity

Sequence: QVHLVESGGGLVQAGGSLRLSCAASGVIFFYYAMGWYRQAPGKESELVAVIDRSGGTTYYADSVKGRFTISRDNAKNTVYLQMNSLKPEDTAVYYCNADDFTYPSGWGFIYDYWGQGTQVTVSS
- polyreactivity (PSR sort gate): low polyreactivity

Sequence: QVQLVESGGGLVQAGGSLRLSCAASGSISYFNAMGWYRPAPGKERELVAAITSGGSTYYADSVKGRFTISRDNAKNTVYLQMTSLKPEDTAVYYCNAPLEWGVYAAQNWDDGYWGQGTQVTVSS
- polyreactivity (PSR sort gate): low polyreactivity

Sequence: QVQLVESGGGLVQAGGILRLSCASSGITFLTYTMGWYRQAPAKERELVAAISRSGGRTYYADSVKGRFTISRDNEKITVYLLMNSLKPEDTAVYYCDAVSATQDFDYWGQGTQETVSS
- polyreactivity (PSR sort gate): high polyreactivity

Sequence: QVQLVESGGGLVQAGGSLRLSCAASGLTFPHYAMGWYRQAPGKEREFVAVISWSGGSTSYADSVKGRFTISRDNAKNTVYLQMNSLKPEDTAVYYCAAVYRTREWSYYYWGQGTQVTVSS
- polyreactivity (PSR sort gate): high polyreactivity

Sequence: QVQLVESVGGLVEAGGRLGISCDDSGIIFRVNTIGCYRQAPGKERELVARSTGAGNKYYADSVKGRFTISRDNAKTTVYLQMNSLKPKDTAVYYCAVREFDNRRVIFYYWGQGTQVTVLS
- polyreactivity (PSR sort gate): high polyreactivity

Sequence: QVQLVESGGGLVQAGGSLRLSCAASGLTFPFYTMGRYRRAPGKERELVAAISRRGGSTYYADSVKGRFTISRDNAKNTVYLQMNSLKPEDTAVYYCAADKYSWYDYWGQGTQVTVSS
- polyreactivity (PSR sort gate): low polyreactivity

Sequence: QVQLVESGGGLVQARGSLRLSCAASGRTFGGYARGWYRQAPGKERELVATISKRAGSTYYADSVKGRFTISRDHAKNTVYLQMNSLKPEDTAVYYCAKVKSARYQEYEYWGQGTQVTVSS
- polyreactivity (PSR sort gate): high polyreactivity

Sequence: QVQHVESGGGLVQAGGSLRLSCAASGFIFRNYAMGWYRQAPGKERELVAAISSRGGSTYYADSVKGRFTISRDNAKNTVYLQMNRLKPEVTAVYYCARRYFYTYGYWGQGSQVTVSS
- polyreactivity (PSR sort gate): high polyreactivity

Sequence: QVQLVESGGGLVQAGGSLRLSCAASGRIFYLNAMGWYRQAPGKERELVAAISGSTGSTYYADSVKGRFTISRDNAKNTVYLQMNSLKPEDTAVYYCNAGGVYDEFNYWGQGTQVTVSS
- polyreactivity (PSR sort gate): low polyreactivity

Sequence: QVQLVESGGGLVQAGGSLRLSCAASGRTFDGNVMGWNRQAPGKERELVAAITASGGRTYYADSVKGRFTISRDNANNTVYIEMNSLNPEDTAVYYCAARIYRVYYVHFAPYYYWGQGTQVTVSS
- polyreactivity (PSR sort gate): high polyreactivity

Sequence: QVQLVESGGGLVQAGGSLRLSCAASGRIFGGYAMGWYRPAPGKERELVAAISGGGSTNYADSVKGRFTISRDNAKNTVYLQMNSLKPEDTAVYYCAAQYWSRRFYWYGYWGQGTQVTVSS
- polyreactivity (PSR sort gate): high polyreactivity

Sequence: QVQLQVSGGGLVQAGGNLRLSCASSCTISESFGMGWNRQAPGKEREFVAGITMGGITNYADSVRGRFTISRDNAKNMYLQMNSLKPEDTAVYYCEVDDYRYINYEFWGQGTQVSVSS
- polyreactivity (PSR sort gate): high polyreactivity

Sequence: QVQLVESGGGLVQAGGSLRLSCAASGYIGNYPMGWYRQAPGKESELVAAITTSGGRTYYADSVKGRFTISRDNAKNTVYVQMNSLKPEDTAVYYCAAPWRLFSLYDYWGQGTQVTVSS
- polyreactivity (PSR sort gate): low polyreactivity

Sequence: QVQRVESGGGLVQAGGSLRLSCAASGFIFYDYMGWYRQAPGKERVLVAVISYSGSSTYYADSVKGRFTISRDNAKNTVYLQMNSLKPEDNAVYYCAARKVNGWDYDYWGQGTQVTVSS
- polyreactivity (PSR sort gate): low polyreactivity

Sequence: QVQLLESGGGLVQAGGSLRLSCAASGFTITRYAMGWYRQAPGKERELVAAITYRGGSTYYADSVKGRFTISRDNAKITVYLQMNSLKPEDTAVYYCAADALYYFSWYYYWGQGTQVTVSS
- polyreactivity (PSR sort gate): high polyreactivity

Sequence: QVQLEESGGGLVQAGGSLRLSCAASGRIFTYYGMGWYRQAPGKERELVAAITRSGGSTRYADSVKGRFTISRDNAKNTVYLQMNSLKPEDTAVYFCAKTHYGVQRLDSCGQGTQVTVSS
- polyreactivity (PSR sort gate): low polyreactivity

Sequence: QVQIVESGGGLVQAGGSLRLSCAASGYTFVENAMGWYRQAPGKERELVAAISNGTITYYADSVKGRFTISRDNAKNTVYLQMNSLKPEDTAVYYCADYEYWGQGTQVTVSS
- polyreactivity (PSR sort gate): low polyreactivity

Sequence: QVQLVESGGGLVQAGGSLRLSCAASGYIFERTAMGWYRQAHGKERELVAAITDDGDDTYYADSVKGRFTISRDNAKNTVYLQMNSLKPEDTAVFYCAKDLYYGDYYYWGQGTQVTVSS
- polyreactivity (PSR sort gate): low polyreactivity

Sequence: QVQLVESGGGLVQAGGSLRLSCAASGSILSYYTMGWYRQAPGKERELVAAISAGGGSTYYADSVKGRFTISRDNAKNTVYLQMNSLKPEDTAVYYCASGFSRRWQYNYWGQGTQVTVSS
- polyreactivity (PSR sort gate): high polyreactivity
